Assay results taken from patent publication US6368863, “Reagents and methods for modulating gene expression through RNA mimicry” (ISIS Pharmaceuticals Inc.).

Tests used:
Conditions in all cases: protein: synthetic; tags: synthetic 39-mer peptide made by solid phase synthesis, UCSF Biotechnology Resource Core; label: 5'-32P; hairpin with bulge
[1] = target: T1, Tat39 (Tat3B; HIV Tat residues 48-86) (HIV-1, UniProt P04608 P04608:48-86); assay: EMSA; 1:1 Kd; 2-3:1 Kd 200 nM; 10 mM Tris pH 7.5, 70 mM NaCl, 4 C
T1 chain: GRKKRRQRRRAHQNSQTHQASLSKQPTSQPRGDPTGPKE

[2] = target: T1, Tat39 (Tat3B; HIV Tat residues 48-86); assay: EMSA; 1:1 Kd; Krel 1
[3] = target: T1, Tat39 (Tat3B; HIV Tat residues 48-86); assay: EMSA; 1:1 Kd; 2-3:1 Kd 30 nM; Krel 4
[4] = target: T1, Tat39 (Tat3B; HIV Tat residues 48-86); assay: EMSA; 5 pM oligo; 1:1 Kd; Krel 4
[5] = target: T1, Tat39 (Tat3B; HIV Tat residues 48-86); assay: EMSA; 50 pM oligo; 1:1 Kd; 2-3:1 Kd 8000-20000 nM; Krel 10

B1: TAR 59-mer (1-59) (ssRNA)
RNA: GGGUCUCUCUGGUUAGACCAGAUCUGAGCCUGGGAGCUCUCUGGCUAACUAGGGAACCC
- Kd [1]: 40 nM

B2: 5-BrU TAR 59-mer (1-59) (ssRNA)
RNA: B1 RNA
modifications: 5-bromouridine in place of U
- Kd [2]: 40 nM

B3: A:P=S TAR 59-mer (1-59) (ssRNA)
RNA: B1 RNA
modifications: PS linkages at A residues
- Kd [3]: < 10 nM

Binder: GCCAGAUCUGAGCCUGGGAGCUCUCUGGC (XNA, 2'-OMe, PS) [2'-OMe, P=S delta-TAR #2195 29-mer (16-45(-A17))]
- Kd [4]: < 10 nM
- Kd [5]: 4 nM
